Measurements published in article PMC139973.

B1: CXCR4: N11Q/N176Q (protein)
parent chain: MEGISIYTSDNYTEEMGSGDYDSMKEPCFREENANFNKIFLPTIYSIIFLTGIVGNGLVILVMGYQKKLRSMTDKYRLHLSVADLLFVITLPFWAVDAVANWYFGNFLCKAVHVIYTVNLYSSVLILAFISLDRYLAIVHATNSQRPRKLLAEKVVYVGVWIPALLLTIPDFIFANVSEADDRYICDRFYPNDLWVVVFQFQHIMVGLILPGIVILSCYCIIISKLSHSKGHQKRKALKTTVILILAFFACWLPYYIGISIDSFILLEIIKQGCEFENTVHKWISITEALAFFHCCLNPILYAFLGAKFKTSAQHALTSVSRGSSLKILSKGKRGGHSSVSTESESSSFHSS
B2: CXCR4: T13A (protein)
parent chain: B1 parent chain
B3: CXCR4: N11Q (protein)
parent chain: B1 parent chain
B4: CXCR4: S178A (protein)
parent chain: B1 parent chain
B5: CXCR4: N176Q (protein)
parent chain: B1 parent chain

Experiments:
[1] = p24 ELISA of virus replication over 12 days; conditions: glycan lost; control: CXCR4 wt cells
[2] = flow cytometry, PE-labelled mAb 12G5, cell surface; conditions: glycan lost; control: CXCR4 wt (CXCR4+g1g2)

Row | Protein | other: cell permissiveness for HIV-1 (coreceptor function) [1] | expression_or_secretion, percent_of_wt [2]
1 | B1 | no change | –
2 | B2 | no change | –
3 | B3 | no change | –
4 | B4 | no change | no change
5 | B5 | no change | no change
